Results reported in article PMC5715260, “Increasing the length and hydrophobicity of the C‐terminal sequence of transthyretin strengthens its binding affinity to retinol binding protein” (FEBS Open Bio, 2017).

Biological target: Human retinol binding protein (RBP) (human, UniProt P02753 19-201)
Test: native gel or EMSA; purified TTR (0.5 uM) incubated with human RBP (0-4 uM) at 4 °C for 2 h; free and RBP-bound TTR separated by native PAGE (10%), western blot with anti-TTR and ECL; Kd by Scatchard analysis assuming a 1:2 TTR:RBP complex; low TTR/RBP molar ratio
Details: both partners purified

B1: Crocodylus porosus transthyretin (TTR), recombinant (natural protein)
chain: not shown
notes: Transthyretin, Crocodylus porosus, recombinant wild type; The discussion says all TTRs were secreted as a tetramer; also called C. porosus TTR; crocTTR; source: Pichia pastoris, secreted into the culture medium, purified (preparative native PAGE)
  Kd: 1420 nM
